This is an account of results in PMC6915604.

The target in this experiment is β-glucosidase with N-terminal K-coil and N-terminal His-tag (KG).

With “human H chain ferritin with C-terminal E-coil, without the sequence of a His-tag (HE)”, the retention rate of relative enzyme activity of the KG-HE complex recovered in a magnetic field, after usage cycles 1 to 3 (93.8%, 82.5%, 56.3%); pH 4.5, 45 °C, 20 min is 93.8%.
